The results in this text go back to paper PMC4881023, “SALM5 trans-synaptically interacts with LAR-RPTPs in a splicing-dependent manner to regulate synapse development” (Scientific Reports, 2016).

Test [1] has as its target SALM5 (untagged) (not stated (mouse and human SALM5 are named for other constructs)) (UniProt Q8BXA0). Description: quantitative cell-surface binding assay (HRP anti-human Fc, Scatchard analysis); apparent; SALM5 (untagged)-expressing HEK293T cells in 96-well plates, fixed, incubated with increasing concentrations of LAR-Ecto-Fc for 1 hour, HRP-conjugated anti-human-Fc, TMB colour reaction.

For test [2], the target named is T1, LAR-Ig (Ig1-3)-Fc of the BLI (human, UniProt P10586 30-318).
T1 chain: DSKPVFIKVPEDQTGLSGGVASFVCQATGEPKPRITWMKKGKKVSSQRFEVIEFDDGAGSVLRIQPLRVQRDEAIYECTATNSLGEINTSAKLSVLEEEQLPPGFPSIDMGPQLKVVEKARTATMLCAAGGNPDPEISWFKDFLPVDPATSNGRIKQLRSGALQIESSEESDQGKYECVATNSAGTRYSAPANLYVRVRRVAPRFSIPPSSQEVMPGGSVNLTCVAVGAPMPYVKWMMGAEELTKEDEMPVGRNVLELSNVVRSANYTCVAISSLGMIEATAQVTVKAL
Put plainly: BLI; BLItz; 10 μM LAR-Ig (Ig1-3)-Fc or LAR-FN12-Fc immobilised on protein A biosensors for 120 s, hybrid SALM5-Ecto as analyte at three concentrations; 20 mM HEPES, 50 mM NaCl, pH 7.0; global fit. The note with it: both partners purified. For orientation: In BLI a coated tip is dipped into the sample, and binding shifts an interference pattern.

In another test the target is T2, hySALM5-Ecto-Fc ( | human, UniProt Q96NI6 59-374).
T2 chain: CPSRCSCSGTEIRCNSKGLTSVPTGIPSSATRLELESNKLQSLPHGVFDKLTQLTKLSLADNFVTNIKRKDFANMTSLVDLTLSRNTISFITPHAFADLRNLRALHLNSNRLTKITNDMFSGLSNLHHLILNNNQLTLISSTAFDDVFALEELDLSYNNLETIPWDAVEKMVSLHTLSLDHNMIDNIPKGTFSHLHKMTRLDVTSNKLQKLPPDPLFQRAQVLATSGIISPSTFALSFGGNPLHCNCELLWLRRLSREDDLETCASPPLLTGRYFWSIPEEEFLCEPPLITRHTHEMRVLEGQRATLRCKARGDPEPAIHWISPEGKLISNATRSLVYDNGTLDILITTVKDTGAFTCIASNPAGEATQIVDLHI
Description: BLI; BLItz; hySALM5-Ecto-Fc pre-bound to protein A biosensors, LAR-Ig-FN12 as analyte at three concentrations; 20 mM HEPES, 50 mM NaCl, pH 7.0; global fit. The following applies: both partners purified.

SALM5 (untagged) (not stated (mouse and human SALM5 are named for other constructs)), sequence (Q8BXA0 18-719): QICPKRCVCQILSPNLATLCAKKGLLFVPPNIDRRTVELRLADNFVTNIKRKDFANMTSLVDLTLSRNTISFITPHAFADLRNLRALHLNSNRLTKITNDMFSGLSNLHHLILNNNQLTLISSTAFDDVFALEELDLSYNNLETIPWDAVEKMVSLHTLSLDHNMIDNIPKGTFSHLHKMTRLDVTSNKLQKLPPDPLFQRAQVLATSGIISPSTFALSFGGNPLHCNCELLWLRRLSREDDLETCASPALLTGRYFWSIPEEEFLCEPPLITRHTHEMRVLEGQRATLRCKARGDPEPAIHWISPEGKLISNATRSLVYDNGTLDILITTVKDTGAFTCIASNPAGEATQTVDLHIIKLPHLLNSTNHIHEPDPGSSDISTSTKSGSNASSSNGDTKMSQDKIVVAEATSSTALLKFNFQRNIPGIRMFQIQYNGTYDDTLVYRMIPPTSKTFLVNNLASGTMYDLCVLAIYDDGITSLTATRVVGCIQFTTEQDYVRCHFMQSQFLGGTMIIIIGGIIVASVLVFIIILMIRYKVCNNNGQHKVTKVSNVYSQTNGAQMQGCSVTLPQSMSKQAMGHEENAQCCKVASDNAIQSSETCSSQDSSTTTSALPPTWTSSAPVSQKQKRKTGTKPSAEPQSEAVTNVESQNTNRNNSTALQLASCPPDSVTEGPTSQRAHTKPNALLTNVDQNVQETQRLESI

In the case of “LAR-Ecto-Fc (meA^− and meB^−) (from UniProt P10586 30-1263) (Fc fusion)”, in test [1], the Kd is 0.00896 µM.

B1: hySALM5-Ecto (hybrid SALM5, LRR + Ig domains), tag cleaved (domain or fragment)
chain: CPSRCSCSGTEIRCNSKGLTSVPTGIPSSATRLELESNKLQSLPHGVFDKLTQLTKLSLADNFVTNIKRKDFANMTSLVDLTLSRNTISFITPHAFADLRNLRALHLNSNRLTKITNDMFSGLSNLHHLILNNNQLTLISSTAFDDVFALEELDLSYNNLETIPWDAVEKMVSLHTLSLDHNMIDNIPKGTFSHLHKMTRLDVTSNKLQKLPPDPLFQRAQVLATSGIISPSTFALSFGGNPLHCNCELLWLRRLSREDDLETCASPPLLTGRYFWSIPEEEFLCEPPLITRHTHEMRVLEGQRATLRCKARGDPEPAIHWISPEGKLISNATRSLVYDNGTLDILITTVKDTGAFTCIASNPAGEATQIVDLHI
modifications: VLRB.61 printed as M1-L82; signal peptide (1-23) taken as removed on secretion; hagfish accession not among the candidates; LVPR residue left by thrombin cleavage omitted / A-B- form taken as stated …
For B1, the Kd in test [2] came out at 16.6 µM.

B2: LAR-Ig-FN12 (Ig1-3-FNIII12, aa 27A–513A) (domain or fragment)
chain: AHGDSKPVFIKVPEDQTGLSGGVASFVCQATGEPKPRITWMKKGKKVSSQRFEVIEFDDGAGSVLRIQPLRVQRDEAIYECTATNSLGEINTSAKLSVLEEEQLPPGFPSIDMGPQLKVVEKARTATMLCAAGGNPDPEISWFKDFLPVDPATSNGRIKQLRSGALQIESSEESDQGKYECVATNSAGTRYSAPANLYVRVRRVAPRFSIPPSSQEVMPGGSVNLTCVAVGAPMPYVKWMMGAEELTKEDEMPVGRNVLELSNVVRSANYTCVAISSLGMIEATAQVTVKALPKPPIDLVVTETTATSVTLTWDSGNSEPVTYYGIQYRAAGTEGPFQEVDGVATTRYSIGGLSPFSEYAFRVLAVNSIGRGPPSEAVRARTGEQAPSSPPRRVQARMLSASTMLVQWEPPEEPNGLVRGYRVYYTPDSRRPPNAWHKHNTDAGLLTTVGSLLPGITYSLRVLAFTAVGDGPPSPTIQVKTQQGVPA
modifications: splice form not given; A-B- form taken because the printed limits fit the P10586 numbering (no meA, no meB) / C-terminal Fc carrier omitted (the Fc would dimerise the chain); VLRB.61 signal peptide
In the case of B2, in the test with hySALM5-Ecto-Fc, the Kd came out at 38.5 µM.
